Data reported in patent publication US20230025572A1 (published 2023).

Assays:
[1] = molecular target: T1, MAGE-B5 peptide on HLA-A*02:01 (human); test: cytokine release
T1 peptide: KVLEYLAKV
Experimental: (§1) FIG. 18 T2 cells were loaded with 10-5 mol/l MAGE-A1278 (SEQ ID NO: 11) or the 2 most similar epitopes in the human proteome (MAGE-B16 and MAGE-B5, SEQ ID NOs: 54 and 55, respectively) differing in only 2 amino acids from MAGE-A1278 and co-cultured with TCR modified T cells. Functional response was assessed based on IFNγ production.

[2] = molecular target: T2, MAGE-B16 peptide on HLA-A*02:01 (human); test: cytokine release
T2 peptide: KVLEFVAKV
Experimental: as §1

[3] = molecular target: T3, MAGE-A1 peptide on HLA-A*02:01 (human); test: multimer staining
T3 peptide: KVLEYVIKV

B1: TCR 1367 (TCR, V domains shown)
Valpha: GEDVEQSLFLSVREGDSSVINCTYTDSSSTYLYWYKQEPGAGLQLLTYIFSNMDMKQDQRLTVLLNKKDKHLSLRIADTQTGDSAIYFCAESIGSNSGYALNFGKGTSLLVTP
Vbeta: DVKVTQSSRYLVKRTGEKVFLECVQDMDHENMFWYRQDPGLGLRLIYFSYDVKMKEKGDIPEGYSVSREKKERFSLILESASTNQTSMYLCASRGLAGYEQYFGPGTRLTVT
B1: no recognition [1]; no recognition [2]; recognises [3].

B2: TCR 1405 (TCR, V domains shown)
Valpha: GENVEQHPSTLSVQEGDSAVIKCTYSDSASNYFPWYKQELGKGPQLIIDIRSNVGEKKDQRIAVTLNKTAKHFSLHITETQPEDSAVYFCAARPNSGNTPLVFGKGTRLSVIA
Vbeta: SAVISQKPSRDICQRGTSLTIQCQVDSQVTMMFWYRQQPGQSLTLIATANQGSEATYESGFVIDKFPISRPNLTFSTLTVSNMSPEDSSIYLCSVEQDTNTGELFFGEGSRLTVL
B2: no recognition [1]; no recognition [2]; recognises [3].

B3: TCR 1705 (TCR, V domains shown)
Valpha: QKEVEQDPGPLSVPEGAIVSLNCTYSNSAFQYFMWYRQYSRKGPELLMYTYSSGNKEDGRFTAQVDKSSKYISLFIRDSQPSDSATYLCAMSDTGNQFYFGTGTSLTVIP
Vbeta: AAGVIQSPRHLIKEKRETATLKCYPIPRHDTVYWYQQGPGQDPQFLISFYEKMQSDKGSIPDRFSAQQFSDYHSELNMSSLELGDSALYFCASSFRGGGANVLTFGAGSRLTVL
B3: no recognition [1]; no recognition [2]; recognises [3].
